# Laboratory results: US20210403576A1 (HELIXMITH, published 2021)
# Residue numbers refer to the chain shown, from its start.
# B1: VH6/Vk0 (antibody, IgG1, V domains shown)
# VH: QVQLVQSGAEVKKPGSSVKVSCKASGYSFPTHWITWVRQAPGQGLEWMGTIDPTDSYNFYGPSFQGRVTITADKSTSTAYMELSSLRSEDTAVYYCARDGNYYDSRGYYYDTFDMWGQGTLVTVSS
# VL: DIQMTQSPSFLSASVGDRVTITCRASQGISTYLAWYQQKPGTAPKLLIYSASTLESGVPSRFSGSGSGTDFTLTISSLQPEDSATYYCQQADSFPLTFGGGTKVEIK
# notes: Full IgG1/kappa expressed in HEK 293 EBNA cells
# B2: VH2/Vk2 (antibody, IgG1, V domains shown)
# VH: EVQLVQSGAEVKKPGESLKISCKGSGYSFPTHWITWVRQMPGKGLEWMGTIDPTDSYNFYGPSFQGQVTISADKSISTAYLQWSSLKASDTAMYYCARDGNYYDSRGYYYDTFDMWGQGTLVTVSS
# VL: B1 VL with F10S, T42K, S83F
# notes: as for B1
# B3: VH0/Vk2 (antibody, IgG1, V domains shown)
# VH: B2 VH with E1Q, K19R, K23Q, Q67H, K74S, I76S
# VL: B1 VL with F10S, T42K, S83F
# notes: as for B1
# B4: VH2/Vk0 (antibody, IgG1, V domains shown)
# VH: B2 VH
# VL: B1 VL
# notes: as for B1
# B5: VH0/Vk0 (antibody, IgG1, V domains shown)
# VH: B2 VH with E1Q, K19R, K23Q, Q67H, K74S, I76S
# VL: B1 VL
# notes: Full IgG1/kappa with the variable domains of 1E4; also called 1E4 antibody variant including the constant domain where the residues were substituted
# B6: VH6/Vk2 (antibody, IgG1, V domains shown)
# VH: B1 VH
# VL: B1 VL with F10S, T42K, S83F
# notes: as for B1
# B7: VH4/Vk5 (antibody, IgG1, V domains shown)
# VH: B1 VH with K23Q, A24G, K74S, V93M
# VL: EIVLTQSPGTLSLSPGERATLSCRASQGISTYLAWYQQKPGQAPRLLIYSASTLESGIPDRFSGSGSGTDFTLTISRLEPEDFATYYCQQADSFPLTFGGGTKVEIK
# notes: as for B1
# Legend:
# [1] = molecular target: T1, human c-Met (Sino Biological) (human, UniProt P08581 25-932, limits assumed); experiment: derived from the Biacore KD, printed 'Average' 3.52 x10^-10 M divided by the KD
# T1 construct: Analyte in the Biacore assay; also called antigen (c-Met); printed as "human c-Met antibody (Sino Biological, Beijing, China)"
# T1 sequence (P08581 25-932 limits assumed): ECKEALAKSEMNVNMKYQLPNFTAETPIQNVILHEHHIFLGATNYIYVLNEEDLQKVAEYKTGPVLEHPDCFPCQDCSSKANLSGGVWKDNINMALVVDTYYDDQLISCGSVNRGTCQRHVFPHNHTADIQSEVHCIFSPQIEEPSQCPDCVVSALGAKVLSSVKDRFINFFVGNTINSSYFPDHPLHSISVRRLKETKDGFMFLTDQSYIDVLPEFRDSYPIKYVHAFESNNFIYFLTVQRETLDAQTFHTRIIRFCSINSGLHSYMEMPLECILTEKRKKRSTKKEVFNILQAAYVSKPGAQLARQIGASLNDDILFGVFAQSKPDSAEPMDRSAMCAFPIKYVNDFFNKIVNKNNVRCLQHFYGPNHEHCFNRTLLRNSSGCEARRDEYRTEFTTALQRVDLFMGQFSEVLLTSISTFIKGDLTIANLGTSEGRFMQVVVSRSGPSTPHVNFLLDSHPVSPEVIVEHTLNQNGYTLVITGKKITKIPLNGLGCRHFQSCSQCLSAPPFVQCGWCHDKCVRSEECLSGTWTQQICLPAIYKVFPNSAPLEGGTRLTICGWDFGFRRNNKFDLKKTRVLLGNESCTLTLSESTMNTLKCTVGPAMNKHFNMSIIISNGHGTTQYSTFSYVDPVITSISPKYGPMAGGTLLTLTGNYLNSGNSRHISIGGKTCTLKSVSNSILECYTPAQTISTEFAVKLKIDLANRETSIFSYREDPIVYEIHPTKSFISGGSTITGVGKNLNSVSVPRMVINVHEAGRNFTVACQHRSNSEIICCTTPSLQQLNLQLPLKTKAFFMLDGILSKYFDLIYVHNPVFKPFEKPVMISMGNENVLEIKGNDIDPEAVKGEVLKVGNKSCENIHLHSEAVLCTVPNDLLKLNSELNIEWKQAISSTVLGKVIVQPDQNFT
# Procedure: (§1) The candidate antibodies selected in Example 4 were measured for binding affinity for the antigen (c-Met) with the aid of Biacore. […] The anti-c-Met antibodies to be analyzed were immobilized on Protein A CM5 chips (GE Healthcare, Little Chalfont, UK) through which human c-Met antibody (Sino Biological, Beijing, China) with various concentrations ranging 0.15 to 2 nM was allowed to pass, thereby acquiring sensorgrams. On the basis of the acquired sensorgrams, association constants kₒₙ and dissociation constants koff were measured to calculate Ko value, the ratio koff/kₒₙ.
# (§2) In order to select a final candidate group from the 21 candidate antibodies selected in Example 4, comparison was made according to criteria specified into expression level, binding affinity for antigen, thermal stability, and biopotency. As a rule, the expression level is considered to be the most important index when time and cost are taken into consideration from a point of view of production. […] Thereafter, degrees of improvement in each of the remaining candidate antibodies compared to the reference antibody (VH0/Vk0) were digitized with regard to the selected indices. For normalization, analysis index measurements for individual candidate antibodies were divided by average values to give ratios (index 1) which were in turn divided by the measurement for the antibody VH0/Vk0 (index 2) (Tables 6 to 9). In addition, the measurements for the four indices were multiplied for comprehensive comparison of the four indices of the candidate antibodies. The final results (index 3) are listed in a descending order in Table 10.
# [2] = molecular target: T1, human c-Met (Sino Biological); experiment: SPR (Biacore T200), IgG captured on Protein A CM5 chip, c-Met 0.15-2 nM as analyte
# Procedure: as §1
# [3] = molecular target: c-Met protein receptors on HUVEC (human, UniProt P08581 25-1390); experiment: cell-based or functional assay
# c-Met protein receptors on HUVEC, sequence (P08581 25-1390): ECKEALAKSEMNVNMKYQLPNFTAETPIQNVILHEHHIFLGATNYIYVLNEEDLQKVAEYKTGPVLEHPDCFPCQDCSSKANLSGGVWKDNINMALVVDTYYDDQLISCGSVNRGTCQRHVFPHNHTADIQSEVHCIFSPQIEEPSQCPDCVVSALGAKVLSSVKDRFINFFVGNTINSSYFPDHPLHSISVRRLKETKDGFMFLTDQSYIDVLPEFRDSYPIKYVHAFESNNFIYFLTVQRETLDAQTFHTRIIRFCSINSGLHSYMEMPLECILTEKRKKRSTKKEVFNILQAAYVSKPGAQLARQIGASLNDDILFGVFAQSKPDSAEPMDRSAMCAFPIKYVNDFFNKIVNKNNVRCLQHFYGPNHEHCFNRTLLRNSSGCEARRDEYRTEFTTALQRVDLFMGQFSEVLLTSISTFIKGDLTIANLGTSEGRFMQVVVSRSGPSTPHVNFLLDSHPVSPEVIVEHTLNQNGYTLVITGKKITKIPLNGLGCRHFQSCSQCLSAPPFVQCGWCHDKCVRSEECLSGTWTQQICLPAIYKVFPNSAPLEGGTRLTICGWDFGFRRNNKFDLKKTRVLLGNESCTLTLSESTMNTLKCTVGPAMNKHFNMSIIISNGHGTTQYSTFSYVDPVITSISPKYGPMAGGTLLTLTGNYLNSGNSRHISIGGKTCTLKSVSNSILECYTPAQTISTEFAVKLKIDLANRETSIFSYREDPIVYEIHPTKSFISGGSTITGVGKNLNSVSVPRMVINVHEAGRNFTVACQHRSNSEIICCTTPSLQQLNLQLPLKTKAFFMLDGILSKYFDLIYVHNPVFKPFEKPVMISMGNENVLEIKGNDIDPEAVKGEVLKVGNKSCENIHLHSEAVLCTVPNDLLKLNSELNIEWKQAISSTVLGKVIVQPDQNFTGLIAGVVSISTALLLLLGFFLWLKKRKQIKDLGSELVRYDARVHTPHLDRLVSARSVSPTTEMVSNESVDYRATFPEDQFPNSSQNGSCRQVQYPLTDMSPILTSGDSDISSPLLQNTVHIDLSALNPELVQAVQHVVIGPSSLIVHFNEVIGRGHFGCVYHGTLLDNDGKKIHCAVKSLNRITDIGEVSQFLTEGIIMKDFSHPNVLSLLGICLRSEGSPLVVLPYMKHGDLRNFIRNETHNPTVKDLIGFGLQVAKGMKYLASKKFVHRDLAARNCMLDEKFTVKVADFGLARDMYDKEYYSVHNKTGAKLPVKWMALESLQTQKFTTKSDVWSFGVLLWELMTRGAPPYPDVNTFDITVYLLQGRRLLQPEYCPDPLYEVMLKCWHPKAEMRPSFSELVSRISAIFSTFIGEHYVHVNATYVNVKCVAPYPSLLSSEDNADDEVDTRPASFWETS
# [4] = molecular target: T1, human c-Met (Sino Biological); experiment: derived from the Biacore KD, normalised to VH0/Vk0
# Procedure: as §1, §2
"Index 1 (binding affinity, inverse KD relative to the Average 3.52) [1]",Kd [2] [pM],Relative KD to VMDO2 VH0/Vk0 [2],"Index 1 (Relative Migration divided by the Average 157.5), HUVEC migration assay [3]","Index 2 (Relative Migration relative to VH0/Vk0), HUVEC migration assay [3]","Relative Migration (%), HUVEC migration assay, 90 ng/ml [3] [%]","Index 2 (binding affinity, inverse KD relative to VH0/Vk0) [4]",Binder
0.85,414,0.8,0.962,1.01,152,1.26,B1
0.701,502,0.97,1.12,1.18,176,1.04,B2
0.688,512,0.98,1.03,1.09,163,1.02,B3
0.659,534,1.03,0.993,1.04,156,0.974,B4
0.677,520,1,0.951,1,150,1,B5
0.8,440,0.85,0.979,1.03,154,1.18,B6
0.669,526,1.01,1.09,1.14,171,0.989,B7
